Measurements taken from article doi:10.1101/2023.02.14.528348v1.

Substrate: C[C@H](N)C(=O)N[C@@H](C)C(=O)O
Assay: proton-coupled uptake, pyranine fluorescence assay in proteoliposomes
Assay type: biochemical, Escherichia coli
Conditions: valinomycin / potassium gradient driven membrane potential

B1: DtpB (Escherichia coli K-12) (protein)
chain: MNTTTPMGMLQQPRPFFMIFFVELWERFGYYGVQGVLAVFFVKQLGFSQEQAFVTFGAFAALVYGLISIGGYVGDHLLGTKRTIVLGALVLAIGYFMTGMSLLKPDLIFIALGTIAVGNGLFKANPASLLSKCYPPKDPRLDGAFTLFYMSINIGSLIALSLAPVIADRFGYSVTYNLCGAGLIIALLVYIACRGMVKDIGSEPDFRPMSFSKLLYVLLGSVVMIFVCAWLMHNVEVANLVLIVLSIVVTIIFFRQAFKLDKTGRNKMFVAFVLMLEAVVFYILYAQMPTSLNFFAINNVHHEILGFSINPVSFQALNPFWVVLASPILAGIYTHLGNKGKDLSMPMKFTLGMFMCSLGFLTAAAAGMWFADAQGLTSPWFIVLVYLFQSLGELFISALGLAMIAALVPQHLMGFILGMWFLTQAAAFLLGGYVATFTAVPDNITDPLETLPVYTNVFGKIGLVTLGVAVVMLLMVPWLKRMIATPESH
Km: 290 ± 40 µM
